The data set addresses FnCpf1 (Cas12a) (Francisella novicida U112, UniProt A0Q7Q2 1-1300). Briefly: native PAGE / preparative native electrophoresis; 5 mM MgCl2; protein:RNA:DNA 1:1.3:1.7; Reconstitution: 81 mM KCl, 38 mM bicine pH 8.0, 5 mM MgCl2; protein + crRNA 30 min at 293 K, then DNA duplex 60 min at 368 K (so in the source); complex in 150 mM KCl, 50 mM bicine pH 8.0, 0.5 mM TCEP. Conditions: protein: recombinant; tags: C-terminal His6; crRNA-guided DNA target.

Consider one molecule from publication PMC5505246, “Assembly of Francisella novicida Cpf1 endonuclease in complex with guide RNA and target DNA”.

Sequence of FnCpf1 (Cas12a) (A0Q7Q2 whole entry): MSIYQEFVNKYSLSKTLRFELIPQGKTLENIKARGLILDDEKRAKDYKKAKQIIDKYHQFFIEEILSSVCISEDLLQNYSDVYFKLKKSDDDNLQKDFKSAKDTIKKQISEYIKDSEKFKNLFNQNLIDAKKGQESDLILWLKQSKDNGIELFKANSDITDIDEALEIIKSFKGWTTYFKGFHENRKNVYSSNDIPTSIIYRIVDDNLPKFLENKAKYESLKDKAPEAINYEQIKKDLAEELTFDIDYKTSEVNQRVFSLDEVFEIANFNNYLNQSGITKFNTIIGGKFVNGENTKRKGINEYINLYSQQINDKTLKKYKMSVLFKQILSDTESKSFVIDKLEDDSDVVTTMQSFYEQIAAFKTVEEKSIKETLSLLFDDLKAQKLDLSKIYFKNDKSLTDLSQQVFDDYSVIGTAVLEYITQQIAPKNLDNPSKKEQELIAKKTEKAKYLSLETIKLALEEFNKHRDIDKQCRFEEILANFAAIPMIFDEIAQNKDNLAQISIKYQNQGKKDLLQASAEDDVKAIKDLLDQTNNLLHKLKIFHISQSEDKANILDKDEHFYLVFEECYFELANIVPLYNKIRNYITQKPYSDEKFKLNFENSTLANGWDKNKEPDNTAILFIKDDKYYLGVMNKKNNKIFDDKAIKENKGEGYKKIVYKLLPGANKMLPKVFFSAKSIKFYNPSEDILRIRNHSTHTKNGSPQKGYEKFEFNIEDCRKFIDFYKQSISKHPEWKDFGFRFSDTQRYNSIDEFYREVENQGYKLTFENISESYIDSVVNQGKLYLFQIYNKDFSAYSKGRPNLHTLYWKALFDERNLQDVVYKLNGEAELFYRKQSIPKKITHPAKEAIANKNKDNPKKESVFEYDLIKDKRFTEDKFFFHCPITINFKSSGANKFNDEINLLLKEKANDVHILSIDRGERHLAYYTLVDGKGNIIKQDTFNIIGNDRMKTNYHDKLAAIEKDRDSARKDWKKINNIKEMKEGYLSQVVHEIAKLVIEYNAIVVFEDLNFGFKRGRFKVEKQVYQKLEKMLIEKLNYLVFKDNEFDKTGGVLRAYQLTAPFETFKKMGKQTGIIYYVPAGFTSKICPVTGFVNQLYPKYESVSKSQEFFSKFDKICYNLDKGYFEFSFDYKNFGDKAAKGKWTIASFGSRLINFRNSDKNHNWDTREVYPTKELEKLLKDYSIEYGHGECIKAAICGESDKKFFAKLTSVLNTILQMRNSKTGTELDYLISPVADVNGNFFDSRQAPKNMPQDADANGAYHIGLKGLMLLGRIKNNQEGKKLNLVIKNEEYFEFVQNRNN

B1: crRNA + 31-nt dsDNA target (target and nontarget strands) (mixed)
RNA: AAUUUCUACUGUUGUAGAUGAGAAGUCAUUUAAUAAGGCCACU
DNA 1: GCAGTGGCCTTATTAAATGACTTCTCTAACG
DNA 2: CGTTAGAGAAGTCATTTAATAAGGCCACTGC
B1: the binding result is “binds”.
